# Test results published in the supplement of paper PMC12764529.
# ± gives the half width of the 95% confidence interval.
# Test: folding stability dG unfold (combined trypsin and chymotrypsin); higher = more stable
# Experimental: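 Folding stability of de novo designed mini-proteins (<80 aa, no Cys; designed by TrROS, TrMRF, ProteinMPNN and the joint model) was measured by cDNA display proteolysis with trypsin and chymotrypsin. Each protease was used at 11 concentrations in a threefold dilution series plus a no-protease condition. K50 was inferred by Bayesian fitting of sequencing counts, and dG unfold was derived against a sequence-predicted unfolded-state K50 (Tsuboyama et al. method). Sequences shown include variable-length N-terminal GS-type padding (SAGGSAGG...) inside a display construct carrying a PA tag. Rows were kept only if the AF2 dimer inter-PAE was >15, to exclude likely homo-oligomers.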
row,Sequence,folding stability dG unfold
1,SAGGSAGGSAGGSSVEEEFLAYAKANPEPAPFEFEGPDEKVLLYFPPGGEIDPVSIELKSAGGSAGGSAGGS [r4_438_JUSTAS],< -1 kcal/mol
2,SAGGSAGGSAGGVVELPELPPGDDAEVTEVRTPSPGPVELVLRPPHSDETTTRTLSPERLSAGGSAGGSAGG [r7_342_JUSTAS],< -1 kcal/mol
3,SAGGSAGGSAGGWYRIKWPNGHEYPVKVDEIDPDGNIKVEPPNDEEHKFPADGMKIEPLPSAGGSAGGSAGG [r7_823_TrROS],< -1 kcal/mol
4,SAGGSAGGSAGKITIKPEGQDGNGMYYEIRLPDNGKTIQVPFPSPEDADRRAKKILKELFSAGGSAGGSAGG [r11_848_TrROS],< -1 kcal/mol
5,SAGGSAGGSAGKMVEVRIEVDVPDADGRPVRVTFTAPLPLHPDGRIDVPAGRVRRVEVRGSAGGSAGGSAGG [r11_664_TrMRF],< -1 kcal/mol
6,SAGGSAGGSAGKNGQPEKVEPQPKIKIRVEDNGKEFETPEQAEELKDELAKKGYKIKVERSAGGSAGGSAGG [r17_289_TrROS],< -1 kcal/mol
7,SAGGSAGGSAGKPYRIKIEFYPPGNGQPMEHTFPVKSPEEAVNNLEKSFPNYQIRVDVVESAGGSAGGSAGG [r17_428_TrROS],< -1 kcal/mol
8,SAGGSAGGSAGMEIKPVKVKAIDPENPKPVAEFEVEVLPDKIIIPKEFAEKVPEDHVEVESAGGSAGGSAGG [r11_725_TrMRF],< -1 kcal/mol
9,SAGGSAGGSAGMEIKYVPEEGLIEVVEKTPKKLPLYSPRYGLEYETKVTTIPPGELDKPLSAGGSAGGSAGG [r11_531_JUSTAS],< -1 kcal/mol
10,SAGGSAGGSAGMIVRPVTVTIIDPTNSTPVKTFEALELPDELVIPEEVAKQFSPENVLVRSAGGSAGGSAGG [r11_725_JUSTAS],< -1 kcal/mol
11,SAGGSAGGSAGMKIKLPNIPGAEVEIEKDPEVPDLYKIKIKNKETKEEIEITLPKEALKPSAGGSAGGSAGG [r17_341_TrROS_Hall],< -1 kcal/mol
12,SAGGSAGGSAGMKVEPKEDPVVDKSGKPKPITKIYVYVPEPLREEALKEAEENGEEVVLESAGGSAGGSAGG [r17_114_JUSTAS],< -1 kcal/mol
13,SAGGSAGGSAGMKVREITGPPDDAKELLDENPDGITSIAIEPHPKNGQYRITFFDQGPPKSAGGSAGGSAGG [r17_79_TrROS],< -1 kcal/mol
14,SAGGSAGGSAGMPVTESTVTTPTGGLRVTYFPGTNLIELLPVEDGEPRPRLFNSEEALERLSAGGSAGGSAG [r3_426_JUSTAS],< -1 kcal/mol
15,SAGGSAGGSAGMSTTIEITDPNLSKEEIKKRIREELGPDVKVTSITEETPDTLKATIVKKSAGGSAGGSAGG [r11_580_JUSTAS],< -1 kcal/mol
16,SAGGSAGGSAGMTLEELQKEGYKVEVIRYPDSPHWYVEIEYPDPDGKKKERTIPVDDIKPSAGGSAGGSAGG [r17_311_TrROS],< -1 kcal/mol
17,SAGGSAGGSAGMTVKEFTTEEEAKEAIEKAPKDVPLLLILKKPESEEEKVILYTGDKVIEEESAGGSAGGSA [r18_407_JUSTAS],< -1 kcal/mol
18,SAGGSAGGSAGMVTTSETITVTVTLPTGPTETITVPVTTTVPVVPVSPEVAAADPAAVAALLSAGGSAGGSA [r18_114_JUSTAS],< -1 kcal/mol
19,SAGGSAGGSAGNEVRVDPDTNLLLVELSNGGRARVLLNEGVIYIEPEGTTFEDIEIEPAASAGGSAGGSAGG [r17_174_TrMRF],< -1 kcal/mol

row,Sequence,folding stability dG unfold
1,SAGGSAGGSAGNKPIMIKAEFPGNGREVEFPIRSPEQAKEFAKRLANQPGFPIKDVDIYPSAGGSAGGSAGG [r11_951_TrROS],< -1 kcal/mol
2,SAGGSAGGSAGNMEPVPTFELPHDDGRPFTIEVYKDPPMIRVEFPGKPRTMPAEEIKKLISAGGSAGGSAGG [r11_370_TrROS],< -1 kcal/mol
3,SAGGSAGGSAGPESRTITLEDPGSLEEAIERALATLPPDTTVTVTFGDEPVELNAATLRALSAGGSAGGSAG [r3_50_JUSTAS],< -1 kcal/mol
4,SAGGSAGGSAGPKPVLLTIEVEAKPDEAEAVAKEIYEKEFPEAKDVTVETFPEKGTFRVTFGSAGGSAGGSA [r18_390_TrMRF],< -1 kcal/mol
5,SAGGSAGGSAGPNDKWKMEMEIEHSIPIEPGDTVRSPDTGEPIKPGKQVSIFRMYMEPAPSAGGSAGGSAGG [r11_793_TrROS],< -1 kcal/mol
6,SAGGSAGGSAGPPERTLSAIIAPNGEILNPIPVPEGAKVTVEPIPETGYYVATVTVPADVSAGGSAGGSAGG [r11_32_TrMRF],< -1 kcal/mol
7,SAGGSAGGSAGRLPPGMKIRIWHRRDGKPRRREFEIPPGMPSIEDAAKEHPPIESVKIERSAGGSAGGSAGG [r11_157_TrROS],< -1 kcal/mol
8,SAGGSAGGSAGSTVKITVKGKTITVPKGAKVKLKNGKTFKAGESLESLSPEEIVKVEKVPSAGGSAGGSAGG [r17_511_TrROS_Hall],< -1 kcal/mol
9,SAGGSAGGSAGTTLLETEELPGPVRVTVERYKLPDGTLRVRTTEIDPSTGARHPREELVESAGGSAGGSAGG [r11_727_JUSTAS],< -1 kcal/mol
10,SAGGSAGGSAGVIPFDSPEDAERAIEEAFRNGDPVTIHRRNPDGKHQTIPFKIKLPKNDPSAGGSAGGSAGG [r17_462_TrROS],< -1 kcal/mol
11,SAGGSAGGSAGVTDPNSSKPVPSSYVVVTVRGPEKESYYRVPPSEAAAFAAARGVEVILESAGGSAGGSAGG [r17_109_JUSTAS],< -1 kcal/mol
12,SAGGSAGGSAKKIEIEPMPNGWTVRIKGNDGKKREIPIPNPNQSISDIAKRAEDNGIDDVEISAGGSAGGSA [r18_83_TrROS],< -1 kcal/mol
13,SAGGSAGGSALKINKLLKEGYEVEVTPPDGKKYVLKKGDSAKKPKEKFNLPENAKIKIKPLSAGGSAGGSAG [r3_216_TrMRF],< -1 kcal/mol
14,SAGGSAGGSAMEEYEIRVPDKPITIHRSPDGNYSLQYFDNKKTETIPADDLDDLPPGDLFRSAGGSAGGSAG [r3_256_TrROS],< -1 kcal/mol
15,SAGGSAGGSAMWVRDIADELRKEGKPVKIEMRNPNGKEKEYTIKPGEPLPPGWDIEKIEYKSAGGSAGGSAG [r3_421_TrROS],< -1 kcal/mol
16,SAGGSAGGSANKDDKKKEQRKQRVESKLPIYDPGNGKPWDIEVTGPVDDPEDAVDWLLDWFSAGGSAGGSAG [r3_271_TrROS],< -1 kcal/mol
17,SAGGSAGGSANPMPVRFQIEWKNPKDGKKQKIPITGTIPDGNGKKHSINELLKNLPGFKIKPSAGGSAGGSA [r18_267_TrROS],< -1 kcal/mol
18,SAGGSAGGSANVEVHPNPDGHVMVKIEMRMYRYDPDGKPKGPVEIKRSIHVDSPEEAKEFFSAGGSAGGSAG [r3_232_TrROS],< -1 kcal/mol
19,SAGGSAGGSAPGQKFPIKEVYWNDGRLAIKVEDNGEEQIIPVGAKIEDDDDGEIKIKLLPPPSAGGSAGGSA [r18_468_TrROS],< -1 kcal/mol

row,Sequence,folding stability dG unfold
1,SAGGSAGGSAPLVENPVPLYVPEEEAVPLAEEIRKKLTKGGLKKIVFEVVPPEEAGIPPDEPLSAGGSAGGS [r12_93_JUSTAS],< -1 kcal/mol
2,SAGGSAGGSAPNQRREVPFYIYFPDDGKMFPFKQEKDPDPPKLKLKLPPEDFPPIEIMPGGSAGGSAGGSAG [r3_454_TrROS],< -1 kcal/mol
3,SAGGSAGGSARVTVTPLPDDRVAVSVERTLYRRDADGNPLGPVRIQASVVVDSLEDAAELASAGGSAGGSAG [r3_232_TrMRF],< -1 kcal/mol
4,SAGGSAGGSASPVQRILARLPSGEPFEAVYDPSTGTIDVLGEGKPSTIPAGTPVEVLEVRLESAGGSAGGSA [r18_144_JUSTAS],< -1 kcal/mol
5,SAGGSAGGSAVIVIPASVVEEKKEKIELKLEDETEYEVEVTTEKVGDEPIAVLKLIPKNIPSSAGGSAGGSA [r18_447_JUSTAS],< -1 kcal/mol
6,SAGGSAGGSAVVTLPDGRLLITEKVEEEVVFPDRDRTSKRVTTKTTLIDPATGTVLPASLLSAGGSAGGSAG [r3_394_JUSTAS],< -1 kcal/mol
7,SAGGSAGGSDINVRVIELPDEDGTPYLLLEADNPEGLSDEIAAAFPPDWDVRTDDDRVWVLRRSAGGSAGGS [r20_189_TrMRF],< -1 kcal/mol
8,SAGGSAGGSEGKEVVVVPAVGVPPEAVRRALEPLGIRTRVVPVPPVRPFRAADPGRVYYTPVGSAGGSAGGS [r12_80_TrMRF],< -1 kcal/mol
9,SAGGSAGGSEMKIDRIKIHDFDPDNGNYFVRIRNNGGPKHTFPVKNADELKEHLPGVKVEVIKSAGGSAGGS [r12_403_TrROS],< -1 kcal/mol
10,SAGGSAGGSEPVPLKVKARFGDPGEEFEADIDIPKEALEGEALTPEQIKEALEALFPDVEIEGSAGGSAGGS [r20_221_TrMRF],< -1 kcal/mol
11,SAGGSAGGSGAFTADNDGGKVYSARLVPLPPGDRPVAVGLDVPVDKPVLVAVLPDRTVVVPLGSAGGSAGGS [r12_994_TrMRF],< -1 kcal/mol
12,SAGGSAGGSGFTVLEKDPSTGKVLVRLPPSLVEDVRRLPDVSPVAEEPDSVLLERTIPPGALASAGGSAGGS [r12_694_JUSTAS],< -1 kcal/mol
13,SAGGSAGGSGMTVEERTSPDGTRVEVYLGPGSVVREESPEGVVTVRTLTDGRVEREEVVPVPASAGGSAGGS [r12_451_JUSTAS],< -1 kcal/mol
14,SAGGSAGGSGPRAEELVVVNAPPGYRIPTPDGVPVTVPADAPNVLVRVTYGPGSSSVTVELVQSAGGSAGGS [r12_338_JUSTAS],< -1 kcal/mol
15,SAGGSAGGSGSPSRPSPVLKFTFPKDPKPVTVPIPSGDPAAAAAAAAALEAAHPDTPVAVEAASAGGSAGGS [r12_601_JUSTAS],< -1 kcal/mol
16,SAGGSAGGSGVKAILDALPPDYTVTVEEEPSGDSYTITVTHPDGASPTLRIDGGGRGELRKALSAGGSAGGS [r12_174_TrMRF],-0.845 ± 0.74 kcal/mol
17,SAGGSAGGSKDILANFPPGWKIEEEPNPNGMTRIDIKNPNGNEHRMEFPVNGKPIKFTIKPPESAGGSAGGS [r20_50_TrROS],< -1 kcal/mol
18,SAGGSAGGSLSLSSNPLVTDPETGEVVYPAVADPVGIATAQWPDSTSYTPMPPNVTRVVRPGEASAGGSAGG [r6_627_JUSTAS],< -1 kcal/mol
19,SAGGSAGGSLTIPLPDGGTLTVVEEDEEEVLVEERKPNPGGSSPATFTRTIRRPPPVLPPKLVSAGGSAGGS [r12_959_JUSTAS],< -1 kcal/mol
